Paper PMC3558595 (Integrative biology : quantitative biosciences from nano to …, 2013)

Molecular target: the molecule itself
Experiment: FRET or BRET

B1: Wzm, transmembrane protein of the A-band polysaccharide ABC transporter of Pseudomonas aeruginosa, fused to GFP2 or YFP (natural protein, Pseudomonas aeruginosa PAO1, UniProt Q9HTB8 1-265, looked up)
chain: MLLGLSRSLWGYRGFVLGSVKREFQSRYRGSLFGALWTVLNPLSMIVVYTVIFSQVMRARLPGVDDGLAYSVYLCAGLLTWGLFAEITSRSQSMFIENANLLKKISFPRICLPVIVLLNAGVNFAIILALFLGFLALSGRLPGAALLALVPLLAIQVLFAAGLGMILGVLNVFFRDVGQLFGICLQFWFWLTPIVYPIGILPEGIRSLIELNPMTALMRSYQQLFLHGQWPDWPSLLPITLLALLLCALGLRLFRQRVGEMVDEL
stoichiometry N: 4
